Reference: patent publication US20210388087A1
Positions count from the first letter of the chain named. In names and notes the source's numbering stands.

B1: H183/L072 VL H27dA (antibody, name in Kabat numbering, V domains shown)
VH: QVQLVESGGGLVQPGRSLRLSCAASGFTFSNAWMHWVRQAPGKGLEWVAQIKDKGNAYAAYYAPSVKGRFTISRDDSKNSIYLQMNSLKTEDTAVYYCHYVHYASASTVLPAFGVDAWGQGTTVTVSS
VL: DIVMTQSPLSLPVTPGEPASISCQASQELVAMNRNTYLHWYQQKPGQAPRLLIYKVSNRFPGVPDRFSGSGSGTDFTLKISRVEAEDVGVYYCAQGTSVPFTFGQGTKLEIK
B2: H183/L072 VH N53R (antibody, name in Kabat numbering, V domains shown)
VH: B1 VH with N56R
VL: B1 VL with A31H
B3: H183/L072 VH Y55R (antibody, name in Kabat numbering, V domains shown)
VH: B1 VH with Y58R
VL: B1 VL with A31H
B4: H183/L072 VL Q27P (antibody, name in Kabat numbering, V domains shown)
VH: B1 VH
VL: B1 VL with Q27P, A31H
B5: H183/L072 VL H27dL (antibody, name in Kabat numbering, V domains shown)
VH: B1 VH
VL: B1 VL with A31L
B6: H183/L072 VH H35W (antibody, name in Kabat numbering, V domains shown)
VH: B1 VH with H35W
VL: B1 VL with A31H
B7: H183/L072 VH K52W (antibody, name in Kabat numbering, V domains shown)
VH: B1 VH with K52W
VL: B1 VL with A31H
B8: H183/L072 VH A57W (antibody, name in Kabat numbering, V domains shown)
VH: B1 VH with A60W
VL: B1 VL with A31H
B9: H183/L072 VL H27dM (antibody, name in Kabat numbering, V domains shown)
VH: B1 VH
VL: B1 VL with A31M
B10: H183/L072 VH N53F (antibody, name in Kabat numbering, V domains shown)
VH: B1 VH with N56F
VL: B1 VL with A31H
B11: H183/L072 VL N28I (antibody, name in Kabat numbering, V domains shown)
VH: B1 VH
VL: B1 VL with A31H, N33I
B12: H183/L072 VH W33F (antibody, name in Kabat numbering, V domains shown)
VH: B1 VH with W33F
VL: B1 VL with A31H
B13: H183/L072 VH A102P (antibody, name in Kabat numbering, V domains shown)
VH: B1 VH with A117P
VL: B1 VL with A31H
B14: H183/L072 VL Y32M (antibody, name in Kabat numbering, V domains shown)
VH: B1 VH
VL: B1 VL with A31H, Y37M
B15: H183/L072 VH Q50R (antibody, name in Kabat numbering, V domains shown)
VH: B1 VH with Q50R
VL: B1 VL with A31H
B16: H183/L072 VH S100aP (antibody, name in Kabat numbering, V domains shown)
VH: B1 VH with S107P
VL: B1 VL with A31H
B17: H183/L072 VH D52aR (antibody, name in Kabat numbering, V domains shown)
VH: B1 VH with D53R
VL: B1 VL with A31H
B18: H183/L072 VH T100bP (antibody, name in Kabat numbering, V domains shown)
VH: B1 VH with T108P
VL: B1 VL with A31H
B19: H183/L072 VL H34I (antibody, name in Kabat numbering, V domains shown)
VH: B1 VH
VL: B1 VL with A31H, H39I
B20: H183/L072 VL Q24P (antibody, name in Kabat numbering, V domains shown)
VH: B1 VH
VL: B1 VL with Q24P, A31H
B21: H183/L072 VH V100iP (antibody, name in Kabat numbering, V domains shown)
VH: B1 VH with V115P
VL: B1 VL with A31H
B22: H183/L072 VL H27dI (antibody, name in Kabat numbering, V domains shown)
VH: B1 VH
VL: B1 VL with A31I
B23: H183/L072 VH S99P (antibody, name in Kabat numbering, V domains shown)
VH: B1 VH with S105P
VL: B1 VL with A31H
B24: H183/L072 VH D101P (antibody, name in Kabat numbering, V domains shown)
VH: B1 VH with D116P
VL: B1 VL with A31H
B25: H183/L072 VH F100gP (antibody, name in Kabat numbering, V domains shown)
VH: B1 VH with F113P
VL: B1 VL with A31H
B26: H183/L072 VH Y55W (antibody, name in Kabat numbering, V domains shown)
VH: B1 VH with Y58W
VL: B1 VL with A31H
B27: H183/L072 VH V100cP (antibody, name in Kabat numbering, V domains shown)
VH: B1 VH with V109P
VL: B1 VL with A31H
B28: H183/L072 VH M34W (antibody, name in Kabat numbering, V domains shown)
VH: B1 VH with M34W
VL: B1 VL with A31H
B29: H183/L072 VH D52aW (antibody, name in Kabat numbering, V domains shown)
VH: B1 VH with D53W
VL: B1 VL with A31H
B30: H183/L072 VH D52aF (antibody, name in Kabat numbering, V domains shown)
VH: B1 VH with D53F
VL: B1 VL with A31H
B31: H183/L072 VL N28L (antibody, name in Kabat numbering, V domains shown)
VH: B1 VH
VL: B1 VL with A31H, N33L
B32: H183/L072 VH I51F (antibody, name in Kabat numbering, V domains shown)
VH: B1 VH with I51F
VL: B1 VL with A31H
B33: H183/L072 VH L100dP (antibody, name in Kabat numbering, V domains shown)
VH: B1 VH with L110P
VL: B1 VL with A31H
B34: H183/L072 VL T31M (antibody, name in Kabat numbering, V domains shown)
VH: B1 VH
VL: B1 VL with A31H, T36M
B35: H183/L072 VH A56F (antibody, name in Kabat numbering, V domains shown)
VH: B1 VH with A59F
VL: B1 VL with A31H
B36: H183/L072 VH A32W (antibody, name in Kabat numbering, V domains shown)
VH: B1 VH with A32W
VL: B1 VL with A31H
B37: H183/L072 VH I51R (antibody, name in Kabat numbering, V domains shown)
VH: B1 VH with I51R
VL: B1 VL with A31H
B38: H183/L072 VL A25L (antibody, name in Kabat numbering, V domains shown)
VH: B1 VH
VL: B1 VL with A25L, A31H
B39: H183/L072 VH I51W (antibody, name in Kabat numbering, V domains shown)
VH: B1 VH with I51W
VL: B1 VL with A31H
B40: H183/L072 VH G100hP (antibody, name in Kabat numbering, V domains shown)
VH: B1 VH with G114P
VL: B1 VL with A31H
B41: H183/L072 VH N53W (antibody, name in Kabat numbering, V domains shown)
VH: B1 VH with N56W
VL: B1 VL with A31H
B42: H183/L072 VL L33I (antibody, name in Kabat numbering, V domains shown)
VH: B1 VH
VL: B1 VL with A31H, L38I
B43: H183/L072 VL N28M (antibody, name in Kabat numbering, V domains shown)
VH: B1 VH
VL: B1 VL with A31H, N33M
B44: H183/L072 VH H35R (antibody, name in Kabat numbering, V domains shown)
VH: B1 VH with H35R
VL: B1 VL with A31H
B45: H183/L072 VL Y32I (antibody, name in Kabat numbering, V domains shown)
VH: B1 VH
VL: B1 VL with A31H, Y37I
B46: H183/L072 VL H34M (antibody, name in Kabat numbering, V domains shown)
VH: B1 VH
VL: B1 VL with A31H, H39M
B47: H183/L072 VH K52F (antibody, name in Kabat numbering, V domains shown)
VH: B1 VH with K52F
VL: B1 VL with A31H

Experiments:
[1] = target: Human CD3eg linker (human); test: SPR; fold vs parent H183/L072
Sequence of Human CD3eg linker (human) (chain, as listed by the source limits assumed): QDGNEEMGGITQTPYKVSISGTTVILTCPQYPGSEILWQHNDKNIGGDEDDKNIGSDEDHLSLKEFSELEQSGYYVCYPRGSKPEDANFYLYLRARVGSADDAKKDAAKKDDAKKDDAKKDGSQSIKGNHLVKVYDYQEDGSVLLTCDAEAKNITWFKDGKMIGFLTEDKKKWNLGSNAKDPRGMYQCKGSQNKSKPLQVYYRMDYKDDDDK

Human CD137 ECD (human) = test: single mutant vs template dBBDu183H
Sequence of Human CD137 ECD (human) (chain, as listed by the source limits assumed): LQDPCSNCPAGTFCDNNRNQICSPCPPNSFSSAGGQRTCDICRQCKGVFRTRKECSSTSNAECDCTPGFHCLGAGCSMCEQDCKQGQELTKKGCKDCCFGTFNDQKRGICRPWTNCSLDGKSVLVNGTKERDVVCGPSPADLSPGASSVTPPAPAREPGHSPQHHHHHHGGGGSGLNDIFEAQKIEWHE

| Binder | fold change of affinity [1] [fold] | fold change of affinity (Human CD137 ECD (human)) [fold] |
| --- | --- | --- |
| B1 | 0 |  |
| B2 |  | 0 |
| B3 |  | 0 |
| B4 | 0 |  |
| B5 | 0 |  |
| B6 |  | 0 |
| B7 |  | 0 |
| B8 |  | 0 |
| B9 | 0 |  |
| B10 |  | 0 |
| B11 | 0 |  |
| B12 |  | 0 |
| B13 |  | 0 |
| B14 | 0 |  |
| B15 |  | 0 |
| B16 |  | 0 |
| B17 |  | 0 |
| B18 |  | 0 |
| B19 | 0 |  |
| B20 | 0 |  |
| B21 |  | 0 |
| B22 | 0 |  |
| B23 |  | 0 |
| B24 |  | 0 |

| Binder | fold change of affinity [1] [fold] | fold change of affinity (Human CD137 ECD (human)) [fold] |
| --- | --- | --- |
| B25 |  | 0 |
| B26 |  | 0 |
| B27 |  | 0 |
| B28 |  | 0 |
| B29 |  | 0 |
| B30 |  | 0 |
| B31 | 0 |  |
| B32 |  | 0 |
| B33 |  | 0 |
| B34 | 0 |  |
| B35 |  | 0 |
| B36 |  | 0 |
| B37 |  | 0 |
| B38 | 0 |  |
| B39 |  | 0 |
| B40 |  | 0 |
| B41 |  | 0 |
| B42 | 0 |  |
| B43 | 0 |  |
| B44 |  | 0 |
| B45 | 0 |  |
| B46 | 0 |  |
| B47 |  | 0 |
